Data on eight molecules can be found in patent US20110008345A1 (GlaxoSmithKline, published 2011).

The target of test [1] is T1, recombinant E. coli-expressed human IL-4 (human, UniProt P05112 25-153).
T1 sequence: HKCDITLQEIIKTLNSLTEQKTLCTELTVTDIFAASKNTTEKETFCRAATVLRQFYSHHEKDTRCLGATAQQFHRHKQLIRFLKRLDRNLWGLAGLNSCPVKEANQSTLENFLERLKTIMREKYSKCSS
The test can be described thus: cell-based or functional assay.

Test [2] has as its target T1, recombinant E. coli-expressed human IL-4. As to the kind of experiment: ELISA, IL-4 binding to IL4Ralpha-Fc.
The target in test [3] is T2, recombinant E. coli-expressed human IL-13 (human, UniProt P35225 35-146).
T2 construct: made and purified at GSK; also called Interleukin-13; rhIL-13
The test can be described thus: SPR.

Another test has as its target T3, recombinant human HER2 (human, UniProt P04626 23-652, limits assumed).
T3 construct: bought
As to the kind of experiment: ELISA.

B1: DOM9-112-210 domain antibody (other)
VH: EVQLLESGGGLVQPGGSLRLSCAASGFTFRNFGMGWVRQAPGKGLEWVSWIISSGTETYYADSVKGRFTISRDNSKNTLYLQMNSLRAEDTAVYYCAKSLGRFDYWGQGTLVTVSS
notes: anti-IL-4 dAb
As for B1, the “Mean IC50 (whole blood phospho-STAT6)” value in test [1] worked out at 3.51 nM. In addition, the IC50 in test [2] was 36.8 nM.

B2: BPC1615 (bispecific antibody, human IgG1, kappa)
heavy: not shown
light: EIVLTQSPATLSLSPGERATLSCRASQNISDYLHWYQQKPGQAPRLLIYYASQSISGIPARFSGSGSGTDFTLTISSLEPEDFAVYYCQNGHSFPLTFGGGTKVEIKRTVAAPSVFIFPPSDEQLKSGTASVVCLLNNFYPREAKVQWKVDNALQSGNSQESVTEQDSKDSTYSLSSTLTLSKADYEKHKVYACEVTHQGLSSPVTKSFNRGEC
notes: also called 656H TVAAPS-210 & 656kappa
As to B2, the Kd in test [3] stood at 0.085 nM.

B3: BPC1609 (bispecific antibody, human IgG1, kappa)
heavy: not shown
light: DIVMTQSPLSLPVTPGEPASISCRSSQNIVHINGNTYLEWYLQKPGQSPRLLIYKISDRFSGVPDRFSGSGSGTDFTLKISRVEADDVGIYYCFQGSHVPWTFGQGTKLEIKRTVAAPSVFIFPPSDEQLKSGTASVVCLLNNFYPREAKVQWKVDNALQSGNSQESVTEQDSKDSTYSLSSTLTLSKADYEKHKVYACEVTHQGLSSPVTKSFNRGEC
Consider B3, for which the Kd in test [3] is 1.01 nM.

B4: BPC1612 (bispecific antibody, human IgG1, kappa)
heavy: not shown
light: DIVMTQSPLSLPVTPGEPASISCRSSQNIVHINGNTYLEWYLQKPGQSPRLLIYKISDRFSGVPDRFSGSGSGTDFTLKISRVEADDVGIYYCFQGSHVPWTFGQGTKLEIKRTVAAPSVFIFPPSDEQLKSGTASVVCLLNNFYPREAKVQWKVDNALQSGNSQESVTEQDSKDSTYSLSSTLTLSKADYEKHKVYACEVTHQGLSSPVTKSFNRGEC
Turning to B4, the Kd in test [3] was 0.565 nM.

B5: BPC1805 (bispecific antibody, human IgG1, kappa)
heavy: not shown
light: DIVMTQSPLSLPVTPGEPASISCRSSQSIVQSNGDTYLEWYLQKPGQSPQLLIYRVSNRFSGVPDRFSGSGSGTDFTLKISRVEAEDVGVYYCFQGSHVPYTFGQGTKLEIKRTVAAPSVFIFPPSDEQLKSGTASVVCLLNNFYPREAKVQWKVDNALQSGNSQESVTEQDSKDSTYSLSSTLTLSKADYEKHKVYACEVTHQGLSSPVTKSFNRGEC
notes: anti-HER2 Affibody fusion; also called antiIGF1R Heavy Chain-GS-AFFI
Consider B5, for which the binding result in the test with recombinant human HER2 was “binds”.

B6: BPC1806 (bispecific antibody, human IgG1, kappa)
heavy: not shown
light: DIVMTQSPLSLPVTPGEPASISCRSSQSIVQSNGDTYLEWYLQKPGQSPQLLIYRVSNRFSGVPDRFSGSGSGTDFTLKISRVEAEDVGVYYCFQGSHVPYTFGQGTKLEIKRTVAAPSVFIFPPSDEQLKSGTASVVCLLNNFYPREAKVQWKVDNALQSGNSQESVTEQDSKDSTYSLSSTLTLSKADYEKHKVYACEVTHQGLSSPVTKSFNRGEC
notes: anti-HER2 Affibody fusion
B6: the binding result with recombinant human HER2 was “binds”.

B7: BPC1808 (bispecific antibody, human IgG1, kappa)
heavy: not shown
light: DIVMTQSPLSLPVTPGEPASISCRSSQSIVQSNGDTYLEWYLQKPGQSPQLLIYRVSNRFSGVPDRFSGSGSGTDFTLKISRVEAEDVGVYYCFQGSHVPYTFGQGTKLEIKRTVAAPSVFIFPPSDEQLKSGTASVVCLLNNFYPREAKVQWKVDNALQSGNSQESVTEQDSKDSTYSLSSTLTLSKADYEKHKVYACEVTHQGLSSPVTKSFNRGEC
notes: anti-HER2 DARPin fusion
Take B7: the binding result with recombinant human HER2 is given as “binds”.

B8: BPC1807 (bispecific antibody, human IgG1, kappa)
heavy: not shown
light: DIVMTQSPLSLPVTPGEPASISCRSSQSIVQSNGDTYLEWYLQKPGQSPQLLIYRVSNRFSGVPDRFSGSGSGTDFTLKISRVEAEDVGVYYCFQGSHVPYTFGQGTKLEIKRTVAAPSVFIFPPSDEQLKSGTASVVCLLNNFYPREAKVQWKVDNALQSGNSQESVTEQDSKDSTYSLSSTLTLSKADYEKHKVYACEVTHQGLSSPVTKSFNRGEC
notes: anti-HER2 DARPin fusion; also called antiIGF1R Heavy Chain-GS-DRPN
In the case of B8, in the test with recombinant human HER2, the binding result is “binds”.
